Experimental data reported in patent US20100310573A1.

target: recombinant human CD4 (catalogue number: 514-CD/CF, manufactured by R&D Systems) (human) (UniProt P01730); test: SPR, Biacore T100; antibody captured on anti-mouse IgG chip, recombinant human CD4 flowed; 1:1 binding model

| Substance | Kd [pM] | koff [s⁻¹] | kon [M⁻¹ s⁻¹] |
| --- | --- | --- | --- |
| 13B8.2 (Beckman Coulter), commercially available anti-human CD4 mouse antibody | 352 | 0.000156 | 444000 |
| Leu-3a (BD Biosciences), commercially available anti-human CD4 mouse antibody | 117 | 0.000129 | 1.1e+06 |
| anti-CD4 mouse monoclonal antibody OKT4 (manufactured by BioLegend) | 2900 | 0.00306 | 1.05e+06 |
